T1: cyno TF ECD-His (cTF-his) (monkey (cyno))
T1 construct: also called bio-cTF-his; monkey TF-His protein
T1 chain: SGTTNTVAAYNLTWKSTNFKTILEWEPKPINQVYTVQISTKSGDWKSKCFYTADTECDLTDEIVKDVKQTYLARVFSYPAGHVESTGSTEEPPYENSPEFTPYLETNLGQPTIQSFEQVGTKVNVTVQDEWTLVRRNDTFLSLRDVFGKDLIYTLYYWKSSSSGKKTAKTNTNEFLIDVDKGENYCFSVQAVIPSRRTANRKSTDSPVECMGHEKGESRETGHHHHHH


Key:
[1] = molecular target: T2, human tissue factor (TF) on MDA-MB-231, NCI-H358 and HCT116 cells (human, UniProt P13726 33-295); assay: flow cytometry on MDA-MB-231 cells
T2 construct: whole, on cells; also called TF antigen; CD142

[2] = molecular target: T3, human TF ECD-His (hTF-his) (human, UniProt P13726 33-251); assay: SPR Biacore T200, antibody on Protein A chip, TF-His as analyte, 1:1 model
T3 construct: also called bio-hTF-his; human TF-His protein

[3] = molecular target: T1, cyno TF ECD-His (cTF-his); assay: as above

| EC50 [1] | Binder | also measured |
| --- | --- | --- |
| 1.98 nM | hu310-15 (antibody, human IgG1, kappa, V domains shown) VH: EVQLVQSGAEVKKPGASVKVSCKASGYSFTGYYMNWVRQAPGQGLEWMGEINPSTGGSTYNQKFKARVTLTVDQSTNTAYMELSSLRSEDTAVYYCARRELGGPFGYWGQGTTVTVSS VL: SIQMTQSPSSLSASVGDRVTITCKASQSVSSGIAWYQQKPGKSPKLLIYFASNRYTGVPSRFSGSGYGTDFTFTISSLQPEDIATYYCQQDYSSPWTFGGGTKVEIKR | – |
| 1.39 nM | hu310-13 (antibody, human IgG1, kappa, V domains shown) VH: EVQLVQSGAEVKKPGASVKVSCKASGYSFTGYYMNWVRQAPGQGLEWMGEINPSTGGSTYNQKFKARVTLTVDQSTNTAYMELSSLRSEDTAVYYCARRELGGPFGYWGQGTTVTVSS VL: SIQMTQSPSSLSASVGDRVTITCKASQSVSNGIAWYQQKPGKSPKLLIYFASNRYTGVPSRFSGSGYGTDFTFTISSLQPEDIATYYCQQDYSSPWTFGGGTKVEIKR | – |
| 2.26 nM | hu310-16 (antibody, human IgG1, kappa, V domains shown) VH: EVQLVQSGAEVKKPGASVKVSCKASGYSFTGYYMNWVRQAPGQGLEWMGEINPSTGGSTYNQKFKARVTLTVDQSTNTAYMELSSLRSEDTAVYYCARRELGGPFGYWGQGTTVTVSS VL: SIQMTQSPSSLSASVGDRVTITCKASQSVSTGIAWYQQKPGKSPKLLIYFASNRYTGVPSRFSGSGYGTDFTFTISSLQPEDIATYYCQQDYSSPWTFGGGTKVEIKR | – |
| 1.76 nM | hu310-14 (antibody, human IgG1, kappa, V domains shown) VH: EVQLVQSGAEVKKPGASVKVSCKASGYSFTGYYMNWVRQAPGQGLEWMGEINPSTGGSTYNQKFKARVTLTVDQSTNTAYMELSSLRSEDTAVYYCARRELGGPFGYWGQGTTVTVSS VL: SIQMTQSPSSLSASVGDRVTITCKASQSVSQGIAWYQQKPGKSPKLLIYFASNRYTGVPSRFSGSGYGTDFTFTISSLQPEDIATYYCQQDYSSPWTFGGGTKVEIKR | – |
| 1.97 nM | hu310-9 (antibody, human IgG1, kappa, V domains shown) VH: EVQLVQSGAEVKKPGASVKVSCKASGYSFTGYYMNWVRQAPGQGLEWMGEINPSTGGSTYNQKFKARVTLTVDQSTNTAYMELSSLRSEDTAVYYCARRELGGPFGYWGQGTTVTVSS VL: DIVMTQSPDSLAVSLGERATINCKASQSVSNGIAWYQQKPGQPPKLLIYFASNRYTGVPDRFSGSGSGTDFTLTISSLQAEDVAVYYCQQDYSSPWTFGGGTKVEIKR | – |
| 1.76 nM | hu310-11 (antibody, human IgG1, kappa, V domains shown) VH: EVQLVQSGAEVKKPGASVKVSCKASGYSFTGYYMNWVRQAPGQGLEWMGEINPSTGGSTYNQKFKARVTLTVDQSTNTAYMELSSLRSEDTAVYYCARRELGGPFGYWGQGTTVTVSS VL: SIVMTQSPKFLAVSLGERATINCKASQSVSNGIAWYQQKPGQSPKLLIYFASNRYTGVPDRFSGSGYGTDFTFTISSLQAEDVAVYYCQQDYSSPWTFGGGTKVEIKR | – |
| 1.95 nM | hu310-12 (antibody, human IgG1, kappa, V domains shown) VH: EVQLVQSGAEVKKPGASVKVSCKASGYSFTGYYMNWVRQAPGQGLEWMGEINPSTGGSTYNQKFKARVTLTVDQSTNTAYMELSSLRSEDTAVYYCARRELGGPFGYWGQGTTVTVSS VL: DIQMTQSPSSLSASVGDRVTITCKASQSVSNGIAWYQQKPGKAPKLLIYFASNRYTGVPSRFSGSGSGTDFTFTISSLQPEDIATYYCQQDYSSPWTFGGGTKVEIKR | – |

Second part, the binder before the results:

| Binder | EC50 [1] | also measured |
| --- | --- | --- |
| hu10H10-1 (antibody, V domains shown, H1+L1; Full-length IgG) VH: EVQLVQSGAEVKKPGASVKVSCKASGYTFITYWIEWVRQRPGQGLEWMGDILPGSGSTNYNENFKGRVTFTADTSTSTVYMQLSSLRSEDTAVYYCARSGYYGNSGFAYWGQGTLVTVSS VL: DIQMTQSPSSLSASVGDRVTITCKSSQSLLSSGNQKNYLTWYQQKPGKAPKLLIYWASTRESGVPSRFSGSGSGTDFTLTISSLQPEDFATYYCQNDYTYPLTFGQGTKLEIK | 2.05 nM | – |
| hu10H10-19 (antibody, V domains shown, H1+L4; Full-length IgG) VH: EVQLVQSGAEVKKPGASVKVSCKASGYTFITYWIEWVRQRPGQGLEWMGDILPGSGSTNYNENFKGRVTFTADTSTSTVYMQLSSLRSEDTAVYYCARSGYYGNSGFAYWGQGTLVTVSS VL: DIQMTQSPSSLSASVGDRVTITCKSSQSLLSSGNQKNYLTWYQQKPGKAPKLLIYWASTRESGVPSRFSGSGSGTDFTLTISSLQPEDFATYYCQNDYTYPLSFGQGTKLEIK | 2.35 nM | – |
| hu310-10 (antibody, human IgG1, kappa, V domains shown) VH: EVQLVQSGAEVKKPGASVKVSCKASGYSFTGYYMNWVRQAPGQGLEWMGEINPSTGGSTYNQKFKARVTLTVDQSTNTAYMELSSLRSEDTAVYYCARRELGGPFGYWGQGTTVTVSS VL: SIVMTQSPDSLAVSLGERATINCKASQSVSNGIAWYQQKPGQSPKLLIYFASNRYTGVPDRFSGSGYGTDFTLTISSLQAEDVAVYYCQQDYSSPWTFGGGTKVEIKR | 1.33 nM | – |
| hu310-5 (antibody, human IgG1, kappa, V domains shown) VH: EVQLVQSGAEVKKPGASVKVSCKASGYSFTGYYMNWVRQAPGQGLEWMGEINPSTGGSTYNQKFKARVTMTVDQSTSTVYMELSSLRSEDTAVYYCARRELGGPFGYWGQGTTVTVSS VL: SIQMTQSPSSLSASVGDRVTITCKASQSVSNGIAWYQQKPGKSPKLLIYFASNRYTGVPSRFSGSGYGTDFTFTISSLQPEDIATYYCQQDYSSPWTFGGGTKVEIKR | 1.55 nM | – |
| hu310-3 (antibody, human IgG1, kappa, V domains shown) VH: EVQLVQSGAEVKKPGASVKVSCKASGYSFTGYYMNWVRQAPGQGLEWMGEINPSTGGSTYNQKFKARVTMTVDQSTSTVYMELSSLRSEDTAVYYCARRELGGPFGYWGQGTTVTVSS VL: SIVMTQSPKFLAVSLGERATINCKASQSVSNGIAWYQQKPGQSPKLLIYFASNRYTGVPDRFSGSGYGTDFTFTISSLQAEDVAVYYCQQDYSSPWTFGGGTKVEIKR | 1.83 nM | – |
| hu310-6 (antibody, human IgG1, kappa, V domains shown) VH: EVQLVQSGAEVKKPGASVKVSCKASGYSFTGYYMNWVRQAPGQGLEWMGEINPSTGGSTYNQKFKARVTMTVDQSTSTVYMELSSLRSEDTAVYYCARRELGGPFGYWGQGTTVTVSS VL: SIQMTQSPSSLSASVGDRVTITCKASQSVSQGIAWYQQKPGKSPKLLIYFASNRYTGVPSRFSGSGYGTDFTFTISSLQPEDIATYYCQQDYSSPWTFGGGTKVEIKR | 2.56 nM | – |
| hu310-4 (antibody, human IgG1, kappa, V domains shown) VH: EVQLVQSGAEVKKPGASVKVSCKASGYSFTGYYMNWVRQAPGQGLEWMGEINPSTGGSTYNQKFKARVTMTVDQSTSTVYMELSSLRSEDTAVYYCARRELGGPFGYWGQGTTVTVSS VL: DIQMTQSPSSLSASVGDRVTITCKASQSVSNGIAWYQQKPGKAPKLLIYFASNRYTGVPSRFSGSGSGTDFTFTISSLQPEDIATYYCQQDYSSPWTFGGGTKVEIKR | 2.11 nM | – |
| hu310-8 (antibody, human IgG1, kappa, V domains shown) VH: EVQLVQSGAEVKKPGASVKVSCKASGYSFTGYYMNWVRQAPGQGLEWMGEINPSTGGSTYNQKFKARVTMTVDQSTSTVYMELSSLRSEDTAVYYCARRELGGPFGYWGQGTTVTVSS VL: SIQMTQSPSSLSASVGDRVTITCKASQSVSTGIAWYQQKPGKSPKLLIYFASNRYTGVPSRFSGSGYGTDFTFTISSLQPEDIATYYCQQDYSSPWTFGGGTKVEIKR | 1.73 nM | – |
| hu310-7 (antibody, human IgG1, kappa, V domains shown) VH: EVQLVQSGAEVKKPGASVKVSCKASGYSFTGYYMNWVRQAPGQGLEWMGEINPSTGGSTYNQKFKARVTMTVDQSTSTVYMELSSLRSEDTAVYYCARRELGGPFGYWGQGTTVTVSS VL: SIQMTQSPSSLSASVGDRVTITCKASQSVSSGIAWYQQKPGKSPKLLIYFASNRYTGVPSRFSGSGYGTDFTFTISSLQPEDIATYYCQQDYSSPWTFGGGTKVEIKR | 2.08 nM | – |
| hu67-11 (antibody, human IgG1, kappa, V domains shown) VH: EVQLQESGPGLVKPSQTLSLTCTVSGFSLTNYGVNWIRQPPGKGLEWIGVIWSRGNTDYNAAFISRVTISKDTSKNQVSLKLSSVTAADTAVYYCARKDAVVATDALDYWGQGTTVTVSS VL: DIQMTQSPSSLSASVGDRVTITCKASQDVSTAVAWYQQKPGKAPKLLIYSTSYRYTGVPSRFSGSGSGTDFTFTISSLQPEDIATYYCQQHYSTPYTFGGGTKVEIKR | 26.3 nM | Kd [2]: 16.5 nM; koff [2]: 0.000675 s⁻¹; kon [2]: 40900 M⁻¹ s⁻¹; Kd [3]: 8.95 nM; koff [3]: 0.000243 s⁻¹; kon [3]: 27100 M⁻¹ s⁻¹ |
| hu67-13 (antibody, human IgG1, kappa, V domains shown) VH: EVTLKQSGPVLVKPTQTLTLTCTVSGFSLTNYGVNWIRQPPRKALEWLAVIWSRGNTDYNAAFISRLTISKDTSKSQVVLKMTNMDPVDTATYYCARKDAVVATDALDYWGQGTTVTVSS VL: DIQMTQSHKFLSASVGDRVTITCKASQDVSTAVAWYQQKPGKSPKLLIYSTSYRYTGVPSRFSGSGSGTDFTFTISSLQPEDIATYYCQQHYSTPYTFGGGTKVEIKR | – | Kd [2]: 19 nM; koff [2]: 0.000577 s⁻¹; kon [2]: 30400 M⁻¹ s⁻¹; Kd [3]: 10.9 nM; koff [3]: 0.000344 s⁻¹; kon [3]: 31500 M⁻¹ s⁻¹ |
| hu67Y118 (antibody, human IgG1, kappa, V domains shown) VH: EVQLQESGPGLVKPSQTLSLTCTVSGFSLTNYGVNWIRQSPGKGLEWIGVIWSRGNTDYNAAFKSRVTISKDTSKNQVSLKLSSVTAADTAVYYCARKDAIVATDALDYWGQGTTVTVSS VL: DIQMTQSPSSLSASVGDRVTITCKASQDVQTAVAWYQQKPGKAPKLLIYSTHYRYTGVPSRFSGSGSGTDFTFTISSLQPEDIATYYCLQLIGVPHTFGGGTKVEIKR | 7.05 nM | – |

Reference: EP4703388A1 (Jiangsu Hengrui Pharmaceuticals Co., Ltd., dated 2024)
